Data on eleven molecules can be found in paper PMC2873897 (Nature structural & molecular biology, 2010).

Some results are limits rather than exact numbers.

The target of series [1] is T-cadherin EC1-2 wild-type (mouse) (UniProt Q9WTR5). Kind of series: SPR. On the technique in general: SPR reads the build-up and loss of mass on a sensor chip optically.
Series [2] concerns the target E-cadherin ectodomain (Mus musculus) (UniProt P09803). As to the kind of experiment: AUC. Particulars: cited from earlier work.
Series [3] has as its target T cadherin EC1-2 I2A (mouse). Kind of series: AUC.
Series [4] addresses E cadherin EC1-2 wild-type (WT) (mouse). Kind of series: AUC.
Series [5] addresses T cadherin EC1-2 G extension (mouse) (UniProt Q9WTR5). Kind of series: AUC.
The target of series [6] is E cadherin EC1-2 W2A (mouse). Kind of series: AUC.
Series [7] has as its target C-cadherin ectodomain (Xenopus laevis) (UniProt P33148). As to the kind of experiment: AUC. Particulars: cited from earlier work.
The target of series [8] is T cadherin EC1-2 R14E/D140K (charge reversal rescue mutant) (mouse). As to the kind of experiment: AUC.
The target of series [9] is E cadherin EC1-2 MR extension (mouse). As to the kind of experiment: AUC.
Series [10] deals with the molecule itself. As to the kind of experiment: AUC.
Series [11] concerns the molecule itself. Kind of series: AUC. The source holds these as a separate data set.

For “T-cadherin EC1-2 R14S D140S (domain or fragment)”, in series [1], the fold reduction of the binding level against wild type was greater than 5 fold. As to “E-cadherin ectodomain (from UniProt P09803)”, the Kd (in general, the constant that tells how readily two partners part at equilibrium) in series [2] was 80 µM. “T cadherin EC1-2 I2A (domain or fragment)” showed a Kd in series [3] of 37.1 µM.

Consider “E cadherin EC1-2 wild-type (WT) (domain or fragment)”, for which the Kd in [4] is 98.6 µM.

Molecule “T cadherin EC1-2 G extension (from UniProt Q9WTR5 140-355) (domain or fragment)” yielded a Kd in [5] of 16.5 µM. As to “E cadherin EC1-2 W2A (domain or fragment)”, the Kd in [6] was found to be 916 µM. The molecule “T-cadherin EC1-2 R14S (domain or fragment)” showed a fold reduction of the binding level against wild type in series [1] of 5 fold. Consider “C-cadherin ectodomain (from UniProt P33148)”, for which the Kd in [7] is 64 µM.

Regarding “T cadherin EC1-2 R14E/D140K (charge reversal rescue mutant) (domain or fragment)”, the Kd in [8] was 149 µM. Turning to “E cadherin EC1-2 MR extension (domain or fragment)”, the Kd in series [9] came out at 258 µM.

B1: T-cadherin EC1-2 wild-type (domain or fragment, mouse)
chain: IVVSPILIPENQRQPFPRDVGKVVDSDRPEGSKFRLTGKGVDQDPKGTFRINENTGSVSVTRTLDRETIATYQLYVETTDASGKTLEGPVPLEVIVIDQNDNRPIFREGPYIGHVMEGSPTGTTVMRMTAFDADDPATDNALLRYNIRQQTPDKPSPNMFYIDPEKGDIVTVVSPALLDRETLENPKYELIIEAQDMAGLDVGLTGTATATIVIDD
As to B1, the stoichiometry N (as a rule, a count of units in the complex or per binding partner) in the series “AUC [10]” turned out to be 2. This molecule yielded a Kd in the series “AUC [11]” of 41.4 ± 1.7 µM.
